Source: paper PMC9016349, “HOIL‐1 ubiquitin ligase activity targets unbranched glucosaccharides and is required to prevent polyglucosan accumulation” (The EMBO Journal, 2022)

Target: T1, His‐Halo‐tagged Met1‐linked ubiquitin tetramer (human, UniProt P0CG48 1-76; P0CG48 1-76; P0CG48 1-76; P0CG48 1-76)
T1 construct: ubiquitin (76-residue mature product of the polyubiquitin precursor), repeat 1 of 4, joined head to tail through Met1; ubiquitin (76-residue mature product), repeat 2 of 4; ubiquitin (76-residue mature product), repeat 3 of 4; ubiquitin (76-residue mature product), repeat 4 of 4; Tag end read from the printed name Halo‐M1‐Ub4; Covalently coupled to HaloLink resin through the Halo tag; also called …
T1 sequence (P0CG48 1-304, one chain of several): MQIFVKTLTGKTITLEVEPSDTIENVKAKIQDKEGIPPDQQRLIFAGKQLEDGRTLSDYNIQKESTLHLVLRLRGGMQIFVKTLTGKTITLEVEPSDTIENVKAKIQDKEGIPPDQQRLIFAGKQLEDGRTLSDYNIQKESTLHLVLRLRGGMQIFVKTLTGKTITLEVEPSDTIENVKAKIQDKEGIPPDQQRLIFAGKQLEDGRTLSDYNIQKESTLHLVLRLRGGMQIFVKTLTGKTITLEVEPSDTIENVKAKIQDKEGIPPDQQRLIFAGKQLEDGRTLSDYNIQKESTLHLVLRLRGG
Assay: pull-down; Halo‐tagged M1‐linked tetraubiquitin covalently coupled to HaloLink resin; 10 μl beads with 2 μg bacterially expressed HOIL‐1 protein in 0.5 ml PBS pH 7.4, 0.001% NP‐40, 1 mM TCEP, 0.01 mg/ml BSA, 3.5 h at 4°C; bound protein detected by Coomassie staining
Details: both partners purified

binding result: binds
B1: HOIL‐1 (haem‐oxidised IRP2 ubiquitin ligase‐1), full‐length untagged human, wild type (enzyme, UniProt Q9BYM8 1-510, looked up)
chain: MDEKTKKAEEMALSLTRAVAGGDEQVAMKCAIWLAEQRVPLSVQLKPEVSPTQDIRLWVSVEDAQMHTVTIWLTVRPDMTVASLKDMVFLDYGFPPVLQQWVIGQRLARDQETLHSHGVRQNGDSAYLYLLSARNTSLNPQELQRERQLRMLEDLGFKDLTLQPRGPLEPGPPKPGVPQEPGRGQPDAVPEPPPVGWQCPGCTFINKPTRPGCEMCCRARPEAYQVPASYQPDEEERARLAGEEEALRQYQQRKQQQQEGNYLQHVQLDQRSLVLNTEPAECPVCYSVLAPGEAVVLRECLHTFCRECLQGTIRNSQEAEVSCPFIDNTYSCSGKLLEREIKALLTPEDYQRFLDLGISIAENRSAFSYHCKTPDCKGWCFFEDDVNEFTCPVCFHVNCLLCKAIHEQMNCKEYQEDLALRAQNDVAARQTTEMLKVMLQQGEAMRCPQCQIVVQKKDGCDWIRCTVCHTEICWVTKGPRWGPGGPGDTSGGCRCRVNGIPCHPSCQNCH
notes: HOIL‐1 (RBCK1), human, full length (residues 1-510 by the printed construct limits); Tag end read from the printed name His6‐SUMO‐HOIL‐1; also called RBCK1; wild‐type HOIL‐1; source: E. coli BL21 (DE3), purified (tag removed with Ulp1; size exclusion chromatography or dialysis); not shown: His6, N-terminal, cleaved; SUMO, N-terminal, cleaved
